We go through six substances from the supplement of paper PMC11246515.

± gives the standard deviation of the averaged measurements. A value given as a limit tells only on which side of the number the result lay.

This data set is described as follows: total protein half-life in vivo (active degradation + dilution); higher = more stable protein.
Setting [1] is: E. coli NCM3722 delta-clpP, growth: N-lim chemostat, doubling time 6 h.
The mark [2] stands for this setting: E. coli NCM3722 delta-hslV, growth: N-lim chemostat, doubling time 6 h.
[3] abbreviates: E. coli NCM3722 delta-lon, growth: N-lim chemostat, doubling time 6 h.
The mark [4] stands for this setting: E. coli NCM3722 delta-smpB, growth: N-lim chemostat, doubling time 6 h.
Setting [5] is: wild type E. coli NCM3722, growth: C-lim chemostat, doubling time 3 h.
[6] abbreviates: wild type E. coli NCM3722, growth: C-lim chemostat, doubling time 6 h.
Setting [7] is: wild type E. coli NCM3722, growth: C-lim chemostat, doubling time 12 h.
Setting [8] is: wild type E. coli NCM3722, growth: N-lim chemostat, doubling time 12 h.
The mark [9] stands for this setting: wild type E. coli NCM3722, growth: P-lim chemostat, doubling time 6 h.
[10] abbreviates: wild type E. coli NCM3722, growth: P-lim chemostat, doubling time 12 h.
The mark [11] stands for this setting: E. coli NCM3722 delta-clpP delta-lon delta-hslV, growth: N-lim chemostat, doubling time 6 h.
Setting [12] is: wild type E. coli NCM3722, growth: N-lim chemostat, doubling time 6 h.

Take “MRHSVLFATAFATLISTQTFAADLPGKGITVNPVQSTITEETFQTLLVSRALEKLGYTVNKPSEVDYNVGYTSLASGDATFTAVNWTPLHDNMYEAAGGDKKFYREGVFVNGAAQGYLIDKKTADQYKITNIAQLKDPKIAKLFDTNGDGKADLTGCNPGWGCEGAINHQLAAYELTNTVTHNQGNYAAMMADTISRYKEGKPVFYYTWTPYWVSNELKPGKDVVWLQVPFSALPGDKNADTKLPNGANYGFPVSTMHIVANKAWAEKNPAAAKLFAIMQLPVADINAQNAIMHDGKASEGDIQGHVDGWIKAHQQQFDGWVNEALAAQK [P0AFM2]”: the “total protein half-life in vivo” value is, setting by setting: under setting [1], 4.96 ± 0.067 h; under setting [2], 6.88 ± 1.4 h; under setting [3], 5.41 h; under setting [4], 5.41 ± 0.17 h; under setting [5], 3.5 ± 0.29 h; under setting [6], 6.36 h. The “total protein half-life in vivo” value was 5.21 h under setting [7], 11.2 h under setting [8], 6.38 h under setting [9] and 13.1 h under setting [10].

For “MATAWYKQVNPPQRKALFSAWLGYVFDGFDFMMIFYILHIIKADLGITDIQATLIGTVAFIARPIGGGFFGAMADKYGRKPMMMWAIFIYSVGTGLSGIATNLYMLAVCRFIVGLGMSGEYACASTYAVESWPKNLQSKASAFLVSGFSVGNIIAAQIIPQFAEVYGWRNSFFIGLLPVLLVLWIRKSAPESQEWIEDKYKDKSTFLSVFRKPHLSISMIVFLVCFCLFGANWPINGLLPSYLADNGVNTVVISTLMTIAGLGTLTGTIFFGFVGDKIGVKKAFVVGLITSFIFLCPLFFISVKNSSLIGLCLFGLMFTNLGIAGLVPKFIYDYFPTKLRGLGTGLIYNLGATGGMAAPVLATYISGYYGLGVSLFIVTVAFSALLILLVGFDIPGKIYKLSVAK”, the “total protein half-life in vivo” value by setting is: under setting [5], 3.16 h; under setting [6], more than 8 h; under setting [7], 9.57 h; under setting [9], 5.55 h; under setting [10], 9.48 ± 2.4 h.

In the case of P30015, the “total protein half-life in vivo” value is 6.18 ± 0.094 h under setting [11]; 5.87 ± 0.33 h under setting [1]; 5.75 ± 0.43 h under setting [2]; 5.14 ± 0.24 h under setting [3]; 4.71 ± 0.31 h under setting [4]; 2.92 h under setting [5]. Also, the “total protein half-life in vivo” value is, setting by setting: under setting [6], 6.31 ± 0.44 h; under setting [7], 11.4 ± 3.1 h; under setting [12], 5.5 ± 0.47 h; under setting [8], 9.93 ± 0.82 h; under setting [9], 5.97 ± 0.43 h; under setting [10], 11.8 ± 0.42 h.

“MQNITQSWFVQGMIKATTDAWLKGWDERNGGNLTLRLDDADIAPYHDNFHQQPRYIPLSQPMPLLANTPFIVTGSGKFFRNVQLDPAANLGIVKVDSDGAGYHILWGLTNEAVPTSELPAHFLSHCERIKATNGKDRVIMHCHATNLIALTYVLENDTAVFTRQLWEGSTECLVVFPDGVGILPWMVPGTDEIGQATAQEMQKHSLVLWPFHGVFGSGPTLDETFGLIDTAEKSAQVLVKVYSMGGMKQTISREELIALGKRFGVTPLASALAL”: the “total protein half-life in vivo” value under setting [11] is 3.93 h; the “total protein half-life in vivo” value under setting [1] worked out at 2.62 h; the “total protein half-life in vivo” value under setting [2] came to 2.77 ± 0.41 h; the “total protein half-life in vivo” value under setting [4] was 2.45 h; the “total protein half-life in vivo” value under setting [6] stood at 5.1 h; the “total protein half-life in vivo” value under setting [7] is more than 16 h. The “total protein half-life in vivo” value under setting [8] turned out to be 3.97 h, the “total protein half-life in vivo” value under setting [9] was determined as 4.9 h and the “total protein half-life in vivo” value under setting [10] is 10.1 ± 0.11 h.

On to “MATRIEFHKHGGPEVLQAVEFTPADPAENEIQVENKAIGINFIDTYIRSGLYPPPSLPSGLGTEAAGIVSKVGSGVKHIKAGDRVVYAQSALGAYSSVHNIIADKAAILPAAISFEQAAASFLKGLTVYYLLRKTYEIKPDEQFLFHAAAGGVGLIACQWAKALGAKLIGTVGTAQKAQSALKAGAWQVINYREEDLVERLKEITGGKKVRVVYDSVGRDTWERSLDCLQRRGLMVSFGNSSGAVTGVNLGILNQKGSLYVTRPSLQGYITTREELTEASNELFSLIASGVIKVDVAEQQKYPLKDAQRAHEILESRATQGSSLLIP”, for which the “total protein half-life in vivo” value by setting is: under setting [11], 6.37 ± 0.98 h; under setting [1], 5.12 ± 0.23 h; under setting [2], 5.73 ± 0.15 h; under setting [3], 5.78 ± 0.78 h; under setting [4], 5.28 ± 0.14 h; under setting [5], 3.13 ± 0.2 h. In addition, the “total protein half-life in vivo” value is 5.98 ± 0.24 h under setting [6]; 9.65 ± 0.38 h under setting [7]; 5.5 ± 0.41 h under setting [12]; 10.2 ± 0.47 h under setting [8]; 5.84 ± 0.14 h under setting [9]; 12.63 ± 0.043 h under setting [10].

For “MNEFPVVLVINCGSSSIKFSVLDASDCEVLMSGIADGINSENAFLSVNGGEPAPLAHHSYEGALKAIAFELEKRNLNDSVALIGHRIAHGGSIFTESAIITDEVIDNIRRVSPLAPLHNYANLSGIESAQQLFPGVTQVAVFDTSFHQTMAPEAYLYGLPWKYYEELGVRRYGFHGTSHRYVSQRAHSLLNLAEDDSGLVVAHLGNGASICAVRNGQSVDTSMGMTPLEGLMMGTRSGDVDFGAMSWVASQTNQSLGDLERVVNKESGLLGISGLSSDLRVLEKAWHEGHERAQLAIKTFVHRIARHIAGHAASLRRLDGIIFTGGIGENSSLIRRLVMEHLAVLGLEIDTEMNNRSNSCGERIVSSENARVICAVIPTNEEKMIALDAIHLGKVNAPAEFA”, under setting [11], the “total protein half-life in vivo” value was determined as 3.9 h.
